Results taken from patent US20230331828A1 (published 2023).
Residue numbers refer to the chain shown, from its start. Values joined by “and” are separate entries in the source; they are usually repeats but may differ in a detail not shown here. Equal values may be shown once.

B1: h2731 (antibody, V domains shown)
VH: EVQLLESGGGLVQPGGSLRLSCAASGFTFSNYGMSWVRQAPGKGLEWVASIRSGSGRTYYSDNVKGRFTISRDNSKNTLYLQMNSLRAEDTAVYYCVRYDHYSGSSDYWGQGTLVTVSS
VL: DVVMTQSPLSLPVTLGEPASISCKSSQSLLDYDGKTYLNWLLQKPGQSPQRLIYRVTNRDTGVPDRFSGSGSGTDFTLKISRVEAEDVGVYYCWQGTHFPRSFGQGTKVEIK
notes: Humanized IgG mAb; Only the variable domains are tied to the construct
B2: h2731 Fab (Fab, V domains shown)
VH: B1 VH
VL: B1 VL
B3: h2831 (antibody, V domains shown)
VH: B1 VH with Y32F, I51V, S105T
VL: B1 VL
notes: Humanized IgG mAb; also called PB-0575
B4: h2931 (antibody, V domains shown)
VH: B1 VH with Y32F, I51V, S103T, S105T
VL: B1 VL
notes: also called PB-0576
B5: h2726 (antibody, V domains shown)
VH: B1 VH
VL: B1 VL with L15P, R55K, T57S, T61S, S102T
notes: Humanized IgG mAb; Only the variable domains are tied to the construct; also called PB-0573
B6: h2726 Fab (Fab, V domains shown)
VH: B1 VH
VL: B1 VL with L15P, R55K, T57S, T61S, S102T
B7: h2831 Fab (Fab, V domains shown)
VH: B1 VH with Y32F, I51V, S105T
VL: B1 VL
B8: bapineuzumab Fab (Fab, V domains shown)
VH: B1 VH with S55G
VL: B1 VL with L15P, Y32S, R55L, T57S, N58K, R59L, T61S, S102T
notes: also called hBP
B9: h2931 Fab (Fab, V domains shown)
VH: B1 VH with Y32F, I51V, S103T, S105T
VL: B1 VL

Assays:
[1] = target: T1, AβpE3-42 (human, N-terminal pyroglutamate at position 3 of Aβ); assay: direct binding to AβpE3-42 (FIG. 27)
T1 construct: also called pyroglutamate-3 Aβ; pyroglutamate-modified Aβ
T1 sequence (peptide, as listed by the source): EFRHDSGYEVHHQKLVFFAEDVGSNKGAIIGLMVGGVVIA

[2] = target: T2, Aβ1-28 (human); assay: SPR (Biacore T200); antibody captured by anti-human Fc, Aβ1-28 as analyte; global 1:1 fit; apparent KD
T2 construct: Bought peptide (Bachem); also called Aß1-28 monomer; A131-28
T2 sequence (peptide, as listed by the source): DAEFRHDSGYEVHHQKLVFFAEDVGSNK
Protocol: (§1) Determination of binding affinity of anti-Aß candidates to Aß₁₋₂₈ (Bachem, Torrance, CA) was performed using a Biacore T200. Anti-human Fc antibody was immobilized to a CM3 sensor chip (GE Healthcare Life Sciences) via amine coupling and used to capture Aß antibodies.
(§2) Various concentrations of Aß₁₋₂₈ (analyte, ranging from concentrations of 100 nM down to 0.39 nM, serial diluted 2-fold each dilution step) were passed over the captured ligand at 50 μl/min in running buffer (HBS+0.05% P-20, 1 mg/mL BSA) for 240 s association time and 900 s dissociation time. Data were blank subtracted to both an irrelevant sensor not containing ligand, and buffer runs containing 0 nM analyte concentration. Analysis was performed using a global 1:1 fit with Biacore Evaluation software (v3.0).

[3] = target: T3, Aβ1-42 fibrils (human); assay: SPR (BIAcore T200); Aβ1-42 fibrils immobilized, antibody as analyte; global 1:1 fit
T3 construct: Aβ1-42 polypeptide, HFIP-treated, incubated in 10 mM HCl at 37 C for 24 h, pelleted fibrillar fraction, sonicated; Multimeric fibril; also called fibril Aβ42; fibrillar Aβ42
T3 sequence (peptide, as listed by the source): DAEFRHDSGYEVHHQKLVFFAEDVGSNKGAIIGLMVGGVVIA
Protocol: (§3) Fibrils were immobilized on sensor chip CMS (GE Healthcare Life Sciences) via amine coupling to a level to ensure a maximum binding of analyte of approximately 50 RU. […] Regeneration of the chip surface was accomplished by 2 short injections of 10 mM Glycine-HCl pH 1.7. Data was blank subtracted to both a sensor not containing ligand and 0 nM analyte concentration. Analysis was performed using a global 1:1 fit with BIAcore Insight Evaluation software (v2.0) with bulk refractive index set to zero RU.

[4] = target: T3, Aβ1-42 fibrils; assay: competition ELISA; plate coated with fibril Aβ42; competitor hBP-biotin; IC50 of test divided by IC50 of hBP
Protocol: To generate fibrils, Aβ 1-42 polypeptides, previously treated with HFIP (hexafluoroisopropanol) and dried, were resuspended in DMSO to 5 mM, then further diluted to 100 uM with 10 mM HCl. Samples were incubated at 37° C. for 24 h, and then centrifuged to separate soluble and fibrillar species. The pellet was the resuspended in 1×D-PBS to the original volume and sonicated before use.
Plates were coated with 0.5 mg/ml of fibril Aβ 42 and blocked, e.g., with 1% BSA/PBS. […] 100 ul of GE Streptavidin HRP diluted 1/10,000 was then added and incubated for 30 minutes. Plates were then washed 6× with TTBS. Thermo Fisher o-phenylenediamine dihydrochloride (OPD) substrate was prepared fresh per manufacturers direction, and 100 ul per well was added. The reaction was incubated for 15 minutes and the reaction stopped with 50 ul 2N H₂SO₄.

[5] = target: T3, Aβ1-42 fibrils; assay: direct binding to fibrillar Aβ1-42 (FIG. 27)
[6] = target: T4, Aβ pathology (plaques) in human AD brain tissue (human, UniProt P05067 672-713); assay: IHC on frozen human AD brain sections, brain AD 11-97; % stained area against antibody concentration (0.03-9 µg/ml)
T4 construct: Native tissue deposits, heterogeneous; also called tissue Aβ pathology; Aβ plaques
Protocol: (§4) Tissue Sectioning and Fixation. The unfixed frozen brain tissue samples were embedded in Tissue-Tek OCT (Sakura Finetek) in cryomolds dipped in a mixture of 2-methylbutane and dry ice slurry (−60° C.) then stored at −80° C. until sectioning. Serial 10 μm thick cryosections were generated using a Leica 3050S cryostat. The sections were directly thaw-mounted on positively charged glass slides and were stored at −20° C. until use. Prior to immunohistochemistry IHC procedures, the slides were immersed in 10% neutral buffered formalin solution for 10 minutes at 4° C., rinsed in PBS, then incubated for an hour at 37° C. in a glucose oxidase solution (20 mM beta D(+) glucose, 2 mM sodium azide, and 2 units/mL glucose oxidase in 1×PBS). The slides were rinsed 3 times for 5 minutes in PBS before they were transferred onto staining racks for processing in an automated stainer.
(§5) Antibody biotinylation. The humanized IgG antibodies were biotinylated using a non-covalent method, by means of incubation with a biotin-conjugated goat anti-human monovalent fab fragment (Jackson ImmunoResearch) in a ratio of 1:4, for 1 hour at room temperature. Unbound excess Fab was absorbed by pre-incubation with human serum for an additional hour before use. The freshly prepared antibodies were then loaded into the stainer for immediate application to tissue sections.
(§6) Immunostaining. The staining was performed in an automated Leica Bond Rx Stainer (Leica Biosystems), using the Bond Research Kit (DS980, Leica Biosystems) and the avidin-biotin amplified immuno-peroxidase detection system. Each biotinylated anti-Aβ antibody, or a human IgG control, was applied to the sections, at specified concentrations, for one hour and the staining was visualized using the avidin-biotin amplification system (ABC Elite Standard, PK-6100; Vector Laboratories). Hematoxylin counter-staining of nuclei was subsequently applied to sections before dehydration in an ascending series of alcohols, clearing in xylene, cover-slipping, and air-drying.

[7] = target: T4, Aβ pathology (plaques) in human AD …; assay: IHC on frozen human AD brain sections, brain AD 13-75; % stained area against antibody concentration (0.03-9 µg/ml)
Protocol: as §4, §5, §6

[8] = target: T2, Aβ1-28; assay: SPR (Biacore T200); antibody captured by anti-human Fc, Aβ1-28 as analyte; global 1:1 fit
Protocol: as §1, §2

[9] = target: soluble Aβ (Aβ42) aggregates (human, unlabeled, biotinylated or 9:1 unlabeled:biotinylated (position of biotin not stated)); assay: cell-based or functional assay
[10] = target: T4, Aβ pathology (plaques) in human AD …; assay: IHC on frozen human AD brain sections, brain AD 14-11; % stained area against antibody concentration (0.03-9 µg/ml)
Protocol: as §4, §5, §6

[11] = target: T3, Aβ1-42 fibrils; assay: SPR (BIAcore T200); Aβ1-42 fibrils immobilized, antibody as analyte; global 1:1 fit; apparent KD (avidity)
Protocol: as §3

[12] = target: T4, Aβ pathology (plaques) in human AD …; assay: IHC on frozen human AD brain sections, brain AD 15-19; % stained area against antibody concentration (0.03-9 µg/ml)
Protocol: as §4, §5, §6

[13] = target: T3, Aβ1-42 fibrils; assay: SPR (BIAcore T200); Aβ1-42 fibrils immobilized, Fab as analyte; global 1:1 fit
Protocol: (§7) Fibrils were immobilized on sensor chip CMS (GE Healthcare Life Sciences) via amine coupling to a level to ensure a maximum binding of analyte of approximately 100 RU. Various concentrations of antibodies or Fabs (ranging from 1 nM to 100 nM) were passed over the coupled ligand at 30 μL/min in running buffer (HBS+0.05% P-20, 1 mg/mL BSA) for 300 s association time and 1200 s dissociation time. Regeneration of the chip surface was accomplished by 2 short injections of 10 mM Glycine-HCl at pH 1.7. Data was blank-subtracted to both a sensor not containing ligand and 0 nM analyte concentration. Analysis was performed using a global 1:1 fit with BIAcore Insight Evaluation software (v2.0) with bulk refractive index set to zero RU.

[14] = target: T3, Aβ1-42 fibrils; assay: SPR (BIAcore T200); Aβ1-42 fibrils immobilized, Fab as analyte; global 1:1 fit; apparent KD
Protocol: as §7

[15] = target: soluble Aβ oligomers (Example 8) (UniProt P05067 672-713, biotin on the biotinylated preparation and on one tenth of the 9:1 mixture (position not given)); assay: direct ELISA; plate coated with soluble Aβ oligomers, antibody titrated
Protocol: The samples were incubated for 2 hours at room temperature. Plates were washed 4 times with TBS. 0.1% tween 20. Goat anti-human (H+L) HRP (Jackson Immunoresearch, PA) was diluted 1/5000 in 0.1% BSA/PBS 0.1% tween 20, added at 100 μl/well and incubated 1 hour at room temperature. Plates were washed 4 times and o-phenylenediamine dihydrochloride tablets (ThermoFisher) were prepared as per manufacturer instructions. 100 μl was added per well and incubated for 15 minutes at room temperature. […] Curves and resulting EC₅₀ estimations represent nonlinear 3-parameter least-squares fit of data using GraphPad Prism software.

| Binder | binding result [1] | Kd [2] | koff [3] | kon [3] | IC50 ratio (test:hBP) [4] | EC50 [5] | Area Under Curve [6] | Area Under Curve [7] | koff [8] | kon [8] | blockade of binding of soluble Aβ to rat hippocampal neurons at 1:50 molar mAb:Aβ42 ratio [9] | Area Under Curve [10] | Kd [11] | Area Under Curve [12] | koff [13] | kon [13] | Kd [14] | EC50 [15] |
| --- | --- | --- | --- | --- | --- | --- | --- | --- | --- | --- | --- | --- | --- | --- | --- | --- | --- | --- |
| B1 | no binding (tested: 100 ng/ml) | 5.01 nM | 2.62e-05 s⁻¹ | 372000 M⁻¹ s⁻¹ | 0.61 ratio | 0.0081 µg/mL and 0.054 nM | 50.6 | 150 | 0.000595 s⁻¹ | 119000 M⁻¹ s⁻¹ | > 90% | 149 | 0.0704 nM | 52.7 | – | – | – | – |
| B2 | – | – | – | – | – | – | – | – | – | – | – | – | – | – | 0.000289 s⁻¹ | 129000 M⁻¹ s⁻¹ | 2.24 nM | – |
| B3 | – | 6.95 nM | 2.94e-05 s⁻¹ | 265000 M⁻¹ s⁻¹ | 0.77 ratio | – | 49.2 | 139 | 0.000508 s⁻¹ | 73100 M⁻¹ s⁻¹ | – | 149 | 0.111 nM | 49.7 | – | – | – | – |
| B4 | – | 4.35 nM | 2.05e-05 s⁻¹ | 335000 M⁻¹ s⁻¹ | 0.59 ratio | – | 47.7 | 139 | 0.000412 s⁻¹ | 94700 M⁻¹ s⁻¹ | – | 134 | 0.0612 nM | 44.8 | – | – | – | 0.023 µg/mL and 0.15 nM |
| B5 | – | 6.01 nM | 2.12e-05 s⁻¹ | 393000 M⁻¹ s⁻¹ | 0.68 ratio | – | 50.2 | 149 | 0.000555 s⁻¹ | 92300 M⁻¹ s⁻¹ | – | 149 | 0.054 nM | 52.1 | – | – | – | – |
| B6 | – | – | – | – | – | – | – | – | – | – | – | – | – | – | 0.000259 s⁻¹ | 129000 M⁻¹ s⁻¹ | 2.01 nM | – |
| B7 | – | – | – | – | – | – | – | – | – | – | – | – | – | – | 0.000248 s⁻¹ | 108000 M⁻¹ s⁻¹ | 2.31 nM | – |
| B8 | – | – | – | – | – | – | – | – | – | – | – | – | – | – | – | – | 5.34 nM | – |
| B9 | – | – | – | – | – | – | – | – | – | – | – | – | – | – | 0.000199 s⁻¹ | 123000 M⁻¹ s⁻¹ | 1.62 nM | – |
